Results as given in publication PMC5895705.

Target: Glucose-6-phosphate dehydrogenase aggregates formed at 50 °C (UniProt P11411)
Assay: co-sedimentation; as a1 but ClpB homo- or heterohexamers (5 μM) with G6PDH50 aggregates in the absence of DnaK

Sequence of Glucose-6-phosphate dehydrogenase aggregates formed at 50 °C (P11411 whole entry): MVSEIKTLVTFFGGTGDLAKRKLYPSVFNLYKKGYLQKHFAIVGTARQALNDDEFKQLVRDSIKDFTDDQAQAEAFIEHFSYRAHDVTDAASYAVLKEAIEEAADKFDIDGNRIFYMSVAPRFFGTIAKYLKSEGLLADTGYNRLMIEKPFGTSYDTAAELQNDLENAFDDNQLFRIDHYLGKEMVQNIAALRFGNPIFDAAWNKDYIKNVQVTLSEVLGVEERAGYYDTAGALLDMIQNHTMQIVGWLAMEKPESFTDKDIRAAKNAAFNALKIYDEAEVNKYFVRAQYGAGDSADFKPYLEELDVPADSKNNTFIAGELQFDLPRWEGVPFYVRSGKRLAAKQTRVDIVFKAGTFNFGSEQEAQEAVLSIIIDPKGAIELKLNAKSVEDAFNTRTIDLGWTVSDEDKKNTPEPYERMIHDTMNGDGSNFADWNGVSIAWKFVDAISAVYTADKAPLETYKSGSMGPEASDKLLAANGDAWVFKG

## ClpB_(E279A/E678A) (from UniProt P63284 1-857) (natural protein)
  fold binding relative to wt ClpB (in the absence of DnaK): 4 fold
